{
  "source": "patent US20060122099A1",
  "about": "“Method for infusing insulin to a subject to improve impaired total body tissue glucose processing” (priority 2004, published 2006)",
  "key": {"[1]": {"details": "stated without source; cited from earlier work"}, "[2]": {"assay": "Circulating glucose by finger stick during insulin pulse treatments", "assay_type": "in vivo, human", "details": "during the first treatment, with ingested carbohydrates; all examples", "description": "In prototype testing, a commercially available LIFESCAN ONETOUCH ULTRA glucose meter was used to measure the subject's baseline and subsequent circulating blood glucose level. The glucose meter was calibrated according to the manufacturer's recommendations. A blood sampler test strip was then inserted into the blood glucose meter as directed by the manufacturer. The glucose meter automatically turned on upon proper insertion of the test strip into the meter. This commercially available glucose meter utilized a lancet to prick the subject's fingertip or arm. After pricking the skin, the user gently massages the area to help form a round drop of blood (about one micro-liter in volume) on the skin surface. The subject then caused the blood sample to be absorbed onto the blood sampler test strip per the manufacturer's recommended procedure. If adequate blood was absorbed by the blood sampler test strip, the blood glucose level was automatically calculated and shown on the instrument's display panel in approximately 5 seconds. […]\nFor all of the above listed examples, after the initial few days of treatment, the patients underwent treatment once a week, each treatment day consisting of three infusions of insulin accompanied by ingestion of carbohydrates. […] The patients' circulating glucose were measured once every thirty minutes by the finger stick method currently used by most diabetic patients. […]"}},
  "data": [
    {"substance": "insulin", "values": [
      {"measurement": "half-life", "setting": "[1]", "result": 5, "unit": "min"},
      {"measurement": "rise in circulating glucose levels", "setting": "[2]", "result": "100 to 150", "unit": "mg/dL"}
    ]}
  ]
}
